The values that follow come from a protein production outcome set (Wang et al. 2014).

The data set is described as follows: label from the status in PepcDB records.
Turning to “MGEVKDLGMADHGGFDLKIGARVVLEDVKLGDSIAVNGTCLTVTEFNAEEFTVGLAPETLRKTSLEELKKGSPVNLERALQPVSRMGGHVVQGHVDGTGVIESMEVEGDSLWVKVKADKGLLKYIVPKGFVAVDGTSLTVVDVFDEESCFNFMMIAYTQQNVVIPTKKIGQKVNLEVDIMGKYVERLLTSGGFSKGN”, the protein production entry is reported as “failed”.

In the case of “MRLPFAITRFAAGAALAALGTSAFANCVANPPTQSNASFPASLAGKLAYHSYVSYGDGTSQLFIYDFAARTLTQVSKSAWGIQDPMNAVFSPDGKWLAFMGITNNAWNVFLWQVGSSSQPVNMTNSTGQTRNEDPKFSADGKSLFFKQSGDVMQATLSYTSTGPIFTSVVDITNTAPATENSMPFATPDGSAVYFATGTGAGMGLYKETIATHATFAFDTPAGLQTYYPIVRADGTVFYARWKDAASQADQIYTKVNPGDTPNQLSINDCNSNNSDPAPVNGTNYVFFSSTTAGGYQLYLGDVSTGQRWSLSQFGVNSDTTKAKLGSNYYAGGTTASTSGQTTRLLSQGMPASASSSYNSSLGAANAFDGDTANTRWDSIEGSAAGTQWLMVDLGTVRTINGVDLYWDAGAKTYAIQTSSDGVNWTSIYSTSNGIAYGHAVLSNLRGSGRYVRMYGTQRATQWGYSIDEMQVWGY”, the protein production result is “failed”.

“MDKRFVQAHKEARWALWLTLLYLAAWLAAAYLPGVAIGFTGLPHWFEMACLLVPLLFILLCWAMVKLIFRDISLEDDDAV”: the protein production result was “failed”.

In the case of “STQTDKALYNRLVPLVNGVREFSEIQLSRLKKLGIHKTDPSTLTEEEVRKFARLNIDPATITWQ”, the protein production result is listed as “not failed”.

As for “MIDELRALAVFAKTTETGSFRAAARALGLAPSVVSHHVSQLESRLGVALLYRSTRRLSLTPDGQALYGHAQAMLQAAETGLNELAGRAAEPAGTLRLSLPAFFARGPLTTSLAAFSRCHPKVELELDYSDEKRDLIRDGIDLAIRIGELQDSALKSRRLFDMPRLLVAAPSLLDARGEPASPAELADWPWLGIRMRAKRKTLIDAAGRRHDFAIQPRITANSVDAACQLAIAGCGLATPPAFLVENELAAGQLRVVLPDCQVEALGVYAVWPANAARESLTLRLVRFLAELPPHQ”, the protein production result was “failed”.

With “MSIEAKFKKLGTDNAPGQEVRQSAAGLEALIRGAPIEGRPVDFSHGDVDAHEPTPGAFDLFSAGVQSGGVQAYTEYRGDLGIRDLLAPRLAAFTGAPVDARDGLIITPGTQGALFLAVAATVARGDKVAIVQPDYFANRKLVEFFEGEMVPVQLDYVSADETRAGLDLTGLEEAFKAGARVFLFSNPNNPAGVVYSAEEIGQIAALAARYGATVIADQLYSRLRYAGASYTHLRAEAAVDAENVVTIMGPSKTESLSGYRLGVAFGSRAIIARMEKLQAIVSLRAAGYSQAVLRGWFDEAPGWMEDRIARHQAIRDELLHVLRGCEGVFARTPQAGSYLFPRLPKLAVAPAEFVKILRLQAGVVVTPGTEFSPHTADSVRLNFSQDHEAAVAAARRIVTLVERYRA”, the protein production entry is reported as “not failed”.

With “MLKIKILIIIFCCIGVVKAQTVIPPSSETPPGWIYYDGDEFNGDVIDSRYWGIYGSPKVGRPTYNQENKAMLQTYRPEQVFIETLPTGEKICRIRSFKSKDAPSPVHPSVKSKTGWWSGALSSRDSDTEKYYPLFCRIEIKAKVPYLYGLWNALWLRHYKGAGVAEIDILEFFTKAFGENPYPAKANQTLHLFNSETQKLGINLPKGQIRYTEIGDDKPGDNFHVYAVQIDPDPVDNNHAIITFLIDNKVNYQIHTRTQLGDAYTDFITKARKEDRLDRVWDIAITGQVGAFDKLDVGYPAEELQQFDFDIDWIRVYVRDPHTRIVGNSKLPHTPEADSFVKDLLSRMTVEEKIGQLSQYVGRTLLTGPESEYLSDSLIARGLVGSVLNISGAKTLRDLQEKNMRHSRIKIPILFGMDVIHGYKTIFPTPLAESCSWDLAAIERAAKIAAIESSAAGLHWTFAPMVDIARDARWGRVVEGAGEDTYLGSEIAKARVNGFQWNLWENNSVLACAKHWVAYGLPQAGRDYAPVDMSERTLFDTYLPPFKACIDAGVLTFMSAFNDINGIPASAHPFLLKDLLRGQWNFNGFVVSDWEAVKQLVAQGVAEDDKDATRLAFNSGIDMDMTDGLYNKYMKELIEAGKISMEDVDNSVSRILHIKYALGLFVDPYKFCNEEYESQTIMKKEFLDAALDMAHKSAVLLKNDNHTLPLAKNVRSIAVVGPLADNQTELLGSWRARGEDRHVTTVLQGIKNKIGGNKTKVGYARGCDFDGEDKSGFKEAVKLASKSDMVIAVVGEKALMSGESRSRAQLDLPGVQEELIKELVATGKPVVVVLMNGRPLSIEWVDKNVSAILETWFLGTSAGTAIADILFGDYNPSGRLTISFPRVEGQVPIYYNYKKSGRPGDMLHSSTTRHIDVPNAPLYPFGYGLSYTTFSYSAPQSTQKEYTRQETISVSVTVTNTGDRDGEETVQLYVNDKVASVVRPVKELKAFKKIFLKAGESKTVQFDISPLALGFYDAAMNYVVEPGEFEIMTGCNSNDLQTISVKLIN”, the protein production result is reported as “failed”.

For the sequence “HYTPKSLTEAIVAETLTPLTYFGPVEGSACKEWTLKTPAELLDLKICDPAMGSGAFLVQACRWLADRLVEAWAQAEIKGKIINVDGNVLDDLSSNELMPHDIDARINIARYLIAERCLYGIDLNPLAVELAKLSIWLVTLAKGRPFGFLDHSLRCGDSLLGIHQVNQLIELSVLTNSDDQDTLFSKDIRKAIYDASKLRQRLREMPIGDIHDIEEMERLNTEAHKRLYKAKKIADALVGEIFATGANFSAREARLKMLSLKLKESVEEDENIFMEISYQGTVKLQQELPSGRSKRIPIHWPLEFPEVFIRTCSGFDAIIGNPPFLGGRKITGVFGNLYREYLVANIAKGERGSSADLVAYFFLRSFYLLRESGCLGLIAVNSIAEGDSRQIGLERLLQSGAQIFSATPNEPWPGKAAVVTSRIHLIKGAFFGEKLLNGKKVAIISAFLSDQNEWSPKILKENLGQS”, the protein production result was “failed”.

Take “MFVDRIVLSFRGAGLERANTCLRKGQRLRKACSHVFRPLCSSDLPVNLPTDLETKRVMKPPLAERESIWSYPRPPRVEPNTRHLRVVHNQVTIAETRRGYRVLEYSHPPSYYIPLDDIDLQYVMVSSKVRSTFCEFKGEATYYDVEVGWEVSEGAAWSYDFPTRAYRMLKDHIAFYPAKVDACWVDEYRVRPEPRSFYGGWVTPLVKGVYPEEDVEDDEDSSGGDGKDSATQ”: the protein production result was “not failed”.

Take “MKKLPLVFSGCLLGLAGAGNLILDTLPVLSHLFSLIGLVLWIYFLILHLFNWKETKQELTKPPLLSGMATFPMAGMILSTYVFRVFSYLPLVAQGIWWFSFLLDLTLIAGFTIKFACPGRRVHATPSWTVLYVGIAVAALTYPLVGIIEIAYATLSFGFLLTFYLYPLIYSDLKKHPLPLALLGQEGIYCAPFSLLLASLVRVGGTSLPTWVLIVMILASQSFFFFVLTRLPNILKQGFQPAFSALTFPTIITATSLKMAQGILKLPFLDYLVLAETIICLTILFFVLGAYLIWLRKKV”: the protein production result is recorded as “failed”.

As to “MPILIVAVGVLILLFLIIKVKLNTFVSLIVVSFLVAIGLGMDINKIVLSIETGIGGQLGHLALVFGLGAMLGRLVSDAGGGYRIAITLIDKFGRKRIQAAVVVASFIIGIALFFEVGLVLLIPIVYAIAKELKMPFLYLGIPMAAALNVTHGFLPPHPAPTAISVAYGAHIGQVLLFGIIIAVPTTVIAGPLFNKFAMKRFPGAYQKHGNLSGLGPRKEFQLDETPGFAISAVTSLFPVIFMAMATIFSLLLSEHSKGKDIIEFIGTPGTAMLISLLLALYTMGYARKISMQEIGRSISESISQIAMMLLIIGGGGAFKQVLIDGGVGDYVADFFRQTNMSPLFVAWTIAAVLRLCLGSATVAALTTAGMAAPLMEAGSVNPALMVLATGAGSVIACHVNDAGFWMVKEFFGLSMKETFQTWTLLTTVLSVTGLGCVLLAGLVM”, the protein production result is reported as “failed”.

Turning to “MSLQLINLNSDLKRLRDEGYFIQVKNGFLIMRDVPYVNSNRHVCRGTIISSLSLAGDRTRIPDTHVVHFDGDMPCNAEGEALNAVVLQSSIFDLGRGITAKHMFSSKPKSGYTDYYHKMTTYASILSGHAEVLNSGISPKVFSTPEDEEDSVFNYTETASGRVGIGALSDLLTEE”, the protein production result is listed as “failed”.

“SKGRPQIDSSKATDKINPMDFTFVEINEAVKLVEMGVATPQDIDTAIKLGLNRPFGPFELAKQFGAEQIAKRLEELAKQFGKKIFEPAKTLKEGKLEELLKAGKAE”: the protein production result is listed as “not failed”.

Consider “MRLNYPSKVSEEGFQVMVLSLSILKKSFNDFLSTRMLLINLGPILLSLAFFGAVFYYNGGNIVGYCQTLLPQSLNDYSHSQGFFAGVFAWVFKALVYFLIFWIVILLSLVINIFASIFYTPLVVSYLHQKYYPHVVLEEFGSILFSIKYFLKSLAFMLLFLAVLTPFYFIPFIGVFGVFFSIVPHFLFFKNTMSLDIASMIFNHQSYQNLLKQHRLKHYRFSFFCYLFSLIPFFNFFATLLQTLMLTHYFFIFKEKEC”, for which the protein production entry was “not failed”.

On to “MPISNPCFTSFTQPIDGYTLPEKFTFPFCYEPHPLCELAAEELQRHLEAQQEWHHNFGLSGDKSNAIGKMFGVLLVKAPTGEIGYLSAFSGKIADSNHLPYFVPPVFDMLEEDGFFKTELAEITEINATIKQLEANPQLSHLATSIQSETTASLQQIEIQRQVMIEGRKSRKAQRAAAEITAQDGTEKSAEELEQLKVVLGKESVKEKNTLRDIKLIWDEKINALQCQLNELEDALNELKTKRKNLSNGLQKKLFQQYKFLNTHGIEKDLNDIFKDTPNQIPPAGSGECAAPKLLQYAFAHGFTPLALAEFWWGIAPKSEIRQHKKFYASCQSKCQPILGHMLDGIEMDENPLLINPAEGKDLEIVYEDEFMVVVNKPADFLSVPGKNIHDSVYARIQQRYPDATGGLIIHRLDMATSGLLVLGLTPKAHKRLQQQFINRTVEKRYTALLDGVLEQDEGLITLPMRGDLYDRPRQLVCFEHGKPAETTYQVIERKENKTKVYLYPKTGRTHQLRVHCAHYLGLNMPITGDGLYGKKANRLHLHAGYLSLIHPITKEPMEFNVEAEF”, for which the protein production entry is given as “not failed”.

“MKPLRKIRLGIVGCGIAARELHLPALKNLSHLFEITAVTSRTRSHAEEFAKMVGNPAVFDSYEELLESGLVDAVDLTLPVELNLPFIEKALRKGVHVICEKPISTDVETGKKVVELSEKSEKTVYIAENFRHVPAFWKAKELVESGAIGDPVFMNWQIWVGMDENNKYVHTDWRKKPKHVGGFLSDGGVHHAAAMRLILGEIEWISAVAKDLSPLLGGMDFLSSIFEFENGTVGNYTISYSLKGNERFEITGTKGKISISWDKIVLNEEEMKVPQENSYQKEFEDFYQVVAEGKPNDLGSPVQALKDLAFIEACVRSAGNKVFVSSLL”: the protein production entry is “not failed”.

As for “APAEPAAPKSGEAETPPKHPGVLKVEAILEKVQGLEQAVDSFEGKKTDKKYLMIEEYLTKELLALDSVDPEGRADVRQARRDGVRKVQTILEKLEQKA”, the protein production entry is recorded as “not failed”.

Turning to “MNQLTAYTLRLGDNCLVLSQRLGEWCGHAPELEIDLALANIGLDLLGQARNFLSYAAELAGEGDEDTLAFTRDERQFSNLLLVEQPNGNFADTIARQYFIDAWHVALFTRLMESRDPQLAAISAKAIKEARYHLRFSRGWLERLGNGTDVSGQKMQQAINKLWRFTAELFDADEIDIALSEEGIAVDPRTLRAAWEAEVFAGINEATLNVPQEQAYRTGGKKGLHTEHLGPMLAEMQYLQRVLPGQQW”, the protein production entry is “not failed”.

For the sequence “NFTLAITEAVSEKEIYNKLAENLPKILQADRGSVTLITENKDEFEVFSLQGPEGMLSIGKYFSVDNSLAGLAVQQEKTIISKLNADRIEIDAQQLYQQDLLSIMNSPLQFSDRIIGTVNIGSYKENAYDSTSLELLTLVSTLVSNYLERQHLLEQAQIGVKQYKTYSKQLESLNHVAEELCAATNE”, the protein production entry was “failed”.

With “MSMNQFRTMEEEKQDGGELFHTIEVAKVDRNNVSQPPPAATAALLEVPGDELNLIPPLNFSMVDNGIFRSGFPDSANFSFIKTLGLRSIISLCPEPYPENNMQFLKSNGISLFQFGIEGSKSKEPFVDILDQKIREALKVLLDEKNHPLLIHCKRGKHRTGCLVGCMRKLQKWCITSILDEYKRFAAAKARVSDQRFLESFDVSGLKHTPMSFSCSNR”, the protein production result is “failed”.
